From the nanobody polyreactivity screen of Harvey et al. (2022)

Test: yeast display, Sf9 membrane polyspecificity reagent, FACS + sequencing; frameworks hold sequencing errors
How it was run: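 Galactose-induced (36–48 hours) yeast carrying a synthetic nanobody display library were exposed to 10% biotinylated, detergent-solubilized Sf9 membrane reagent at 4 °C for 1 hour. FACS followed streptavidin microbead enrichment, using low and high (top ~1%) gates for expression (anti-HA) and reagent binding (streptavidin). Colony PCR, MiSeq 2 × 250 sequencing and CDR-length filtering followed. Labels for polyreactivity reflect the gate of origin.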

Sequence | polyreactivity (PSR sort gate)
QVQLVESGGGLVQAGGSLRLSCAASGITFRTNAMGWYRQAPGKERELVAAITTNGGNTYYADSVKGRFTISRDNAKNTVYLQMNSLKPEDTAVYYCNTATYVDSFPDPGDHWGQGTQVTVSS | low polyreactivity
QVQLVESGGGLVQAGGSLRLSCSASGITFLANAMAWYRPATGKERELVATITSRGASSYYADSVKVRFTISRDNAKNTVYLQMNSLKPEDTAVYYCAATVRRRYERYNDWAQGTQVTVSS | high polyreactivity
QVQLVESGGGLVQAGGSLRLSCDCSGRIFKRYDMGWYRQAPGKERELVAAITGTGGSTYYADSVKGRFTISRDNAKNTVYLQMNSLKPEDTAVYYCAARLYNTYSGFAFGYWGQGTQVTVSS | high polyreactivity
QVQLHESGGGLVQAGGSLRLSCAASGTITDSGLMGWYRQAPGKERELVAGISSGGITNYADSVKGRFTISRDNAKNTVYLQMNSLKPEDTAVYWGQGTQVTVSS | low polyreactivity
QVQLVESGAGLVQAGGSLSLSCAASGRIFDRYVMGWYRQAPGKERELVAAISDGGSTYYADSVKGRFTISRDNAKNTVYLQMNSLKPEDTAVYYCAAVRYNSRVSTTPSEMYYWGQGTQVTVSS | low polyreactivity
QVQLVESGGGLVQAGGSLRLSCAASGSIFNWNAMGWYRQAPGKERDLVATITITTSTNYADSVKGRFTISRDNAKNSVYLQMNCLKPEDNGVYYCNAGDPYRYLDDYNYWGQGTKVTVSS | low polyreactivity
QVQLVESGGGLVQAGGSLRLSCAASGRIFPQYAMGWSRQAPGKERELVAGITSVGSTYYADSVKGRFTISRDNAKNTVYLQMNSLKPEDTAVYYCAAVPSRYVRANRRTYRYYYWGQGTQVTVSS | high polyreactivity
QVQLVESGGGLVQAGGSLRLSCAASGRTISYYAMGWYRQAPGKERELVAAITSSGSRTYYADSVKGRFTISRDNAKNTVYLQMNSLKPEDTAVYYCAAGKPYFRYDSWGQGTQVTVSS | high polyreactivity
QVQLVESGGGLVQAGGSLRLSCAASGRTFGRYAMGWYRQAPWKERELVAAITVGGGSTYYADSVKGRFTISRDNAKNTVYLQMNSLKPEDTAVYYCNALHTYTYRYDYYYWGQGTQVTVSS | high polyreactivity
QVQLVESGGGLDQAGGSLRLSCAAYGNTFRGYTMGWYRQAPGKEREFVAAISWSGGRTNYADSVKGRFTISRDNAKNTVYLQMNSLKPEDTAVYYCARDYRARRWGMDYWGQGTQVTVSS | high polyreactivity
QVQLVESGGGLVQAGGSLRLSCAASGRIFTAYYAMGWYRQAPGKERELVASISSSGTYTYADSVKGRFTISRDNAKNTVYLQMNSLKPEDTAVYYCATRKLRTRRYDYGYCGQGTQVTVSS | low polyreactivity
QVQLVESGGGLVQAGGSLRISSAASGRTFGPYAIGWYRQAPGKESELVAAITSSGGSTYYADSVKGRFTISRDTAKNTFYLQMNSLKPEDTAVYYCNKLYWRESPDYDYWGQGTQVTVSS | low polyreactivity
QVQLQESGGGLVQAGGSLRLSCAASGSIFKVVDMGLYRQAPAKEREFVATIGEGGNTYYADSVKGRFTISRDNAKNTVYLQMNSLKPEDTAVYYCNVDIGVYAYESDYWGQGTQVTVSS | low polyreactivity
QVQLVESGGGLVQAGGSLRLSCAASGFIFRWYAMGWSRQAPGKERELVAAISRGGSTNYADSVKGRFTISRDNAKNTVYLQMISLKPEDTAVYYCNARYVSYSGRYVIGQYVKYDYWGQGTQVTVSS | high polyreactivity
QVQLVESGGGLVQAGGSLRLSCAASGSNFDPNAMGWYRQAPGKERELVAAISWSGGSTYYADSVKGRFTISRDNAKNTVYLQMNSLKPEDTAVSYCNAQFYDSYSYTNDDWGQGTLVTVSS | low polyreactivity
QVQLVESGGGLVQAGGSLRLSCAASGRILSGTPMGLYRQAPRKERELVAAITNAGITKYADSVKGRFTISRDNAKNTVYLQMNSLKPEDTAVYYCATDRYAYKLYDYWGQGTKVTVSS | low polyreactivity
QVQLVESGGGLVQAGGSLRLSCAASGRNFDPYAMGWYRQAPGKERELVASISRGGSTYADSVKGRFTISRDNAKNTVYLQMNRLKPEVTAVYYCNTSLYTEGDAMDYWGQGTQVTVSS | low polyreactivity
QVQLVESGGGLVQAGGSLRLSCAASGSIFYRNDMGWYRQAPGKERELVAAITWSGVNTYYADSVKGRFTISRDNAKNTVYLQMNSLKPEDTAVYYCAVPSRYWLNRGFDYWGQGTQVTVSS | low polyreactivity
QVQLVESGGGLVQAGGSLRLSCDASGITFWNALGWYRQAPGKERELVAAITSSGGSTYYADSVKGRFTISRDNAKNTVDLQMNSLKPEDTAVYYCAADYGRTRYDMDYWGQGTQVTVSS | low polyreactivity
QVQILESGGGLVKAGGSLRLSCAASGYTFYANAMGWYRKAPGKEREFVASITWSGGSTYYADSVKGRFTISRDNAKNTVYLQMNSLKPEDTAVDYCAADVIGDLRWYRDEYLGQGTQVTVSS | low polyreactivity
QVQLVESGGGLVQAGGSLRLSCAASGFIFWNYAMGWNRQAPGKERDLVAAISSGGTITKYADSVKGRFTISRDKAKNTVYLQMNSLKPEDTAVYYCNAVVRVRFRKNDYWGQGTQVTVSS | high polyreactivity
QVQLVESGGGLVQAGGSLRLTCAASGSIFYLYAMGWYRQAPGKETELVAAISRTGSTYADSVKGRFTISRDNAKKTVYLQMNSLKPEDTAVYYCAAEYRYYWYGTMNYWGQGTQVTVSS | low polyreactivity
QVQLVESGGGLVQAGGSLRLSCAASGFIFPDYAMGWYRPAPGKERELVAAINRRGSRTYYADSVKGRFTISRDNAKNTVYLQMNSLKPEDTAVYYCNRDVGKVYAVIYDYWGQGTQVTVSS | high polyreactivity
QVQLVESGGGLVQAGGSLRLSCAASGRTFKKYAMGWYRQAPGKERELVAAITGSGGSTYYADSVKGRFTISRDNAKNTVYLQMNSLKPEDTAVYYCAAYAYGVWHSQDGGNYWGQGTLVTVSS | low polyreactivity
QVQLVESGGGLVQAGGSLRLTCAASGSIFPYYAMGWYRQAPGKEREFVAVISRRGGSTYYADSVKGRFTISRDNAKNTVYLQMNSLKPEDTAVYYCNARGYNLLDDWGQGTQVTVSS | high polyreactivity
QVQLVESGGGLVQAGGSLRLSCAASGSTFSSYTMGWYRQAPGKERELVAAISRSGGRTYYADSVKGRFTISRDNAKNTVYLQMNSLKPEDTAVYYCNAGLGIEYDYWGQGTQVTVSS | low polyreactivity
QVQLVESGGGLVQAGGSLRLSCAGSGRIFVSYAMGWYRQAPGKERELVAAITRSGGSTYYADSVKGRFTISRDNAKNTVYLQMNSLKPEDTAVYYCNAYIPRTRYRSGYWGQGTQVTVSS | high polyreactivity
QVQLVESGGGLVQAGGSLRLSCAASGFIFYEYAMGWYRQAPGKERELVAAITSGGSTDYADSVKGRFTISRDNANNTVYLQMNSLKPEDTAVYYCNADLFTGYYWYNYWGQGTQVTVSS | low polyreactivity
QVQHVESGGGLVQAGGSLRLSCAASGLIYAYYAMGWYRHAPGKERELVAAISRSGVSTYYADSVKGRFTISRDNAKNTVYLQMNSVKPEDTAVYYCAARWRSGFTSGDYWGQGTQVTVSS | low polyreactivity
QVQLVESGGGLVQAGGSLRLSCAASGATFGRNAMGWYRQAPGKERELVAAISWSASRTSYADSVKGRFTISRDNAKNTVYLQMNSLKPEDTAVYYCAARIWRSYYPYDYWGQGTQVTVSS | high polyreactivity
